In patent publication US20250223614A1:

Columns and labels:
[1] = target: Cfa C-intein fused to the N-terminus of the C-terminal fragment of adenosine base editor ABE8.5 (starting at Cas9 position 310); assay: cell-based or functional assay
[2] = target: Gp41.1 C-intein fused to the N-terminus of the C-terminal fragment of adenosine base editor ABE8.5 (starting at Cas9 position 310); assay: cell-based or functional assay

A7G Edit % (Exp. 1); average (N = 4) percent A > G conversion [1]	A7G Edit % (Exp. 2); average (N = 4) percent A > G conversion [1]	A7G Edit; average percent A > G conversion measured in Exps. 1-3 [1]	A7G Edit; percent A > G conversion (Exp. 3) [1]	A7G Edit % (Exp. 1); average (N = 4) percent A > G conversion [2]	A7G Edit % (Exp. 2); average (N = 4) percent A > G conversion [2]	A7G Edit; average percent A > G conversion (2 experiments only) [2]	Substance
48.2%	74.7%	64.3%	70%				N-terminal fragment of adenosine base editor ABE8.5 (ending at Cas9 position 309) fused at its C-terminus to Cfa N-intein
				54.9%	72.5%	63.7%	N-terminal fragment of adenosine base editor ABE8.5 (ending at Cas9 position 309) fused at its C-terminus to the Gp41.1-SC N-intein
